Experimental data: patent publication US20200040059A1

Assays:
[1] = target: CD96, expressed on transfected cells (UniProt P40200); experiment: flow cytometry on transfected cells
[2] = target: T1, human CD226, full length, expressed on transfected cells (human) (UniProt Q15762); experiment: flow cytometry on transfected cells
T1 sequence: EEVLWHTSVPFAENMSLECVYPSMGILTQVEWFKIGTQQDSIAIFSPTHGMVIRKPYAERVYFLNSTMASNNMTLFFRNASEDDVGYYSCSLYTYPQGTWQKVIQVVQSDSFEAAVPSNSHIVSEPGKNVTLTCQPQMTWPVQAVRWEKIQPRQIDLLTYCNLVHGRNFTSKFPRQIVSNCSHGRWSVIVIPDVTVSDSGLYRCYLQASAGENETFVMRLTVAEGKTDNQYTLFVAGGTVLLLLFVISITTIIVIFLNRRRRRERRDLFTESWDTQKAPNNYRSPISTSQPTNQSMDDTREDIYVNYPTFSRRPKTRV

[3] = target: CD112R, expressed on transfected cells (human) (UniProt Q6DKI7); experiment: flow cytometry on transfected cells
[4] = target: CD80 (Homo sapiens (Human)) (UniProt P33681); experiment: flow cytometry, cells expressing CD80
[5] = target: T2, CD96 (UniProt P40200); experiment: flow cytometry, cells expressing target, 25 nM
T2 sequence (looked up): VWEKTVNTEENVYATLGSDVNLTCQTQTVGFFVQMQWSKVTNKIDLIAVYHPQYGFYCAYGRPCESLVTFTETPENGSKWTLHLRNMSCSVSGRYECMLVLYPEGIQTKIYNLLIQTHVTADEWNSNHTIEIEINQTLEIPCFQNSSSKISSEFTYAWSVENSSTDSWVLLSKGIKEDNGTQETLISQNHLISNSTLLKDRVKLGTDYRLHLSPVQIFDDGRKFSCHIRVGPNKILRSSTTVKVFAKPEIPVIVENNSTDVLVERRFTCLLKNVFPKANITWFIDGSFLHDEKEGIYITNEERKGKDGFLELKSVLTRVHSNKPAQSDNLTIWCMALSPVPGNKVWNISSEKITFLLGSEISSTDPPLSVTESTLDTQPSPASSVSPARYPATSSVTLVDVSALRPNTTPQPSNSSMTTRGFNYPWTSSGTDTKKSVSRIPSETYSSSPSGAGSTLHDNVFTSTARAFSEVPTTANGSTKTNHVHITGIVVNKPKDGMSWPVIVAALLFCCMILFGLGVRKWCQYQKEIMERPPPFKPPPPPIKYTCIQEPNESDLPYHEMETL

[6] = target: T3, CD226 (human) (UniProt Q15762); experiment: flow cytometry, cells expressing target, 25 nM
T3 sequence: T1 sequence

[7] = target: human PD-L1, full length, on transfected HEK293 cells (human) (UniProt Q9NZQ7); experiment: flow cytometry, Fc fusion at 22.2 nM on HEK293 cells transfected with PD-L1
[8] = target: PD-1 (human); experiment: cell-based or functional assay

Chain of CD112R, expressed on transfected cells (human) (Q6DKI7 whole entry): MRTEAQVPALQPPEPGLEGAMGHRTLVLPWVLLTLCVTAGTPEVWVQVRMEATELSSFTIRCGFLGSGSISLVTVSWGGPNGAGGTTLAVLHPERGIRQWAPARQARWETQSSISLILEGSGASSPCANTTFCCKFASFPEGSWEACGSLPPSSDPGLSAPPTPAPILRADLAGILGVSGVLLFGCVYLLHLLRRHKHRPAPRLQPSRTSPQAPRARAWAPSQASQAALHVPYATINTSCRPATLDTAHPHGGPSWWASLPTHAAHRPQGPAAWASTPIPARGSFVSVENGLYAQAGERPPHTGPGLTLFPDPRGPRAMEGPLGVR
Chain of CD80 (Homo sapiens (Human)) (P33681 35-288 limits assumed): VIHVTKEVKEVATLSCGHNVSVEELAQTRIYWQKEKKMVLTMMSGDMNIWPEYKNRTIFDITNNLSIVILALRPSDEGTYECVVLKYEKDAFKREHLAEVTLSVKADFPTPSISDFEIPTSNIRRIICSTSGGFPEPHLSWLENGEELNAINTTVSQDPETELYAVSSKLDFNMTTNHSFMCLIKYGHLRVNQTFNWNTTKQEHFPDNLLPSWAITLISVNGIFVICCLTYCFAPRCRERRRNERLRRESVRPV
Chain of CD112-IgV (Q92692 32-156 limits assumed): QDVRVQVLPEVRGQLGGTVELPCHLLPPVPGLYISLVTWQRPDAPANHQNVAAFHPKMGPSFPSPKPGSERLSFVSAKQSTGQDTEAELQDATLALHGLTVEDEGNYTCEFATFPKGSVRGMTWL

Substance | MFI at 100 nM [1] | MFI at 100 nM [2] | MFI at 100 nM [3] | other results
variant PD-L1 ECD-Fc V129D, P198T (from UniProt Q9NZQ7 19-238) (Fc fusion) | – | – | – | MFI at 20 nM [4]: 152
CD155 variant S42C IgV-Fc (from UniProt P15151 24-139) (Fc fusion) | 1590 | 2100 | 1680 | –
variant PD-L1 ECD-Fc K57R, S99G, R195G (from UniProt Q9NZQ7 19-238) (Fc fusion) | – | – | – | MFI at 20 nM [4]: 11000
variant PD-L1 ECD-Fc I36T, M97L, V129D (from UniProt Q9NZQ7 19-238) (Fc fusion) | – | – | – | MFI at 20 nM [4]: 50900
CD112-IgV (from UniProt Q92692 32-156) (Fc fusion) | – | – | – | MFI at 25 nM [5]: 1170 MFI; MFI at 25 nM [6]: 824 MFI
variant PD-L1 ECD-Fc S99G, T185A, R195G, P198T (from UniProt Q9NZQ7 19-238) (Fc fusion) | – | – | – | MFI at 20 nM [4]: 22100
CD155 variant Q62F, L104E, G111R IgV-Fc (from UniProt P15151 24-139) (Fc fusion) | 1520 | 2040 | 1700 | –
variant PD-L1 ECD-Fc K57R, S99G (from UniProt Q9NZQ7 19-238) (Fc fusion) | – | – | – | MFI at 20 nM [4]: 16300
CD155 variant S42W, S52Q, V57L, Q62Y IgV-Fc (from UniProt P15151 24-139) (Fc fusion) | 1700 | 2140 | 1840 | –
CD155 variant S42A, L104Q, G111R IgV-Fc (from UniProt P15151 24-139) (Fc fusion) | 1700 | 1900 | 1820 | –
variant PD-L1 ECD-Fc E54G, M97L, S99G (from UniProt Q9NZQ7 19-238) (Fc fusion) | – | – | – | MFI at 20 nM [4]: 51900
variant PD-L1 ECD-Fc M18V, I98L, L124S, P198T, L206F (from UniProt Q9NZQ7 19-238) (Fc fusion) | – | – | – | MFI at 20 nM [4]: 143
CD155 variant S42N IgV-Fc (from UniProt P15151 24-139) (Fc fusion) | 1690 | 1910 | 1700 | –
CD155 variant S42N, S52E, V57L, L104E IgV-Fc (from UniProt P15151 24-139) (Fc fusion) | 1540 | 1740 | 1690 | –
variant PD-L1 ECD-Fc G15A, V129D (from UniProt Q9NZQ7 19-238) (Fc fusion) | – | – | – | MFI at 20 nM [4]: 128
CD155 variant S42L, S52L, Q62F, L104Q IgV-Fc (from UniProt P15151 24-139) (Fc fusion) | 2320 | 2640 | 1730 | –

Substance | MFI at 100 nM [1] | MFI at 100 nM [2] | MFI at 100 nM [3] | other results
CD155 variant S42C, S52L IgV-Fc (from UniProt P15151 24-139) (Fc fusion) | 1480 | 2150 | 1660 | –
CD80 variant IgV-Fc E35D/A71D/L72V (from UniProt P33681 35-141) (Fc fusion) | – | – | – | MFI at 22.2 nM [7]: 13100 MFI
variant PD-L1 ECD-Fc I36S, M97L (from UniProt Q9NZQ7 19-238) (Fc fusion) | – | – | – | MFI at 20 nM [4]: 44600
variant PD-L1 ECD-Fc M18V, M97L, T176N, R195G (from UniProt Q9NZQ7 19-238) (Fc fusion) | – | – | – | MFI at 20 nM [4]: 45300
variant PD-L1 ECD-Fc V93E, V129D (from UniProt Q9NZQ7 19-238) (Fc fusion) | – | – | – | MFI at 20 nM [4]: 150
CD80 variant IgV-Fc E35D/M47I/L70M (from UniProt P33681 35-141) (Fc fusion) | – | – | – | MFI at 22.2 nM [7]: 49100 MFI
PD-L2 IgV-Fc I13V, H15Q, L33F, T47A, Q82R, V89D (Fc fusion) | – | – | – | Fold increase over wildtype PD-L2 IgV-Fc, MLR IFN gamma [8]: 1.07 fold; IFN gamma levels pg/mL, MLR [8]: 1470 pg/mL
PD-L2 IgV-Fc E44D, V89D, W91R (Fc fusion) | – | – | – | Fold increase over wildtype PD-L2 IgV-Fc, MLR IFN gamma [8]: 1.13 fold; IFN gamma levels pg/mL, MLR [8]: 1560 pg/mL
CD155 variant S42A IgV-Fc (from UniProt P15151 24-139) (Fc fusion) | 1620 | 2190 | 1730 | –
variant PD-L1 ECD-Fc V129D, T150A (from UniProt Q9NZQ7 19-238) (Fc fusion) | – | – | – | MFI at 20 nM [4]: 142
PD-L2 IgV-Fc I13V, H15Q, V31A, N45S, Q82R, V89D (Fc fusion) | – | – | – | Fold increase over wildtype PD-L2 IgV-Fc, MLR IFN gamma [8]: 1.25 fold; IFN gamma levels pg/mL, MLR [8]: 1720 pg/mL
variant PD-L1 ECD-Fc V129D, H202Q (from UniProt Q9NZQ7 19-238) (Fc fusion) | – | – | – | MFI at 20 nM [4]: 219
PD-L2 IgV-Fc E59G, Q82R (Fc fusion) | – | – | – | Fold increase over wildtype PD-L2 IgV-Fc, MLR IFN gamma [8]: 1.1 fold; IFN gamma levels pg/mL, MLR [8]: 1510 pg/mL
PD-L2 IgV-Fc H15Q, T47A, S67L, Q82R, V89D (Fc fusion) | – | – | – | Fold increase over wildtype PD-L2 IgV-Fc, MLR IFN gamma [8]: 0.87 fold; IFN gamma levels pg/mL, MLR [8]: 1200 pg/mL
PD-L2 IgV-Fc F2L, H15Q, D46E, T47A, Q72H, R76G, Q82R, V89D (Fc fusion) | – | – | – | Fold increase over wildtype PD-L2 IgV-Fc, MLR IFN gamma [8]: 0.85 fold; IFN gamma levels pg/mL, MLR [8]: 1170 pg/mL
PD-L2 IgV-Fc G28V, Q72H, R76G, I86T (Fc fusion) | – | – | – | Fold increase over wildtype PD-L2 IgV-Fc, MLR IFN gamma [8]: 1.29 fold; IFN gamma levels pg/mL, MLR [8]: 1780 pg/mL

More lines, main results first:

MFI at 100 nM [1] | MFI at 100 nM [2] | MFI at 100 nM [3] | Substance | other results
1710 | 2020 | 1710 | CD155 variant S42G, S52Q, L104E, G111R IgV-Fc (from UniProt P15151 24-139) (Fc fusion) | –
1860 | 2430 | 2010 | CD155 variant S52M, V57L IgV-Fc (from UniProt P15151 24-139) (Fc fusion) | –
1640 | 2160 | 1890 | CD155 variant S42A, S52Q, L104Q, G111R IgV-Fc (from UniProt P15151 24-139) (Fc fusion) | –
– | 1900 | 1550 | CD155 variant S52M IgV-Fc (from UniProt P15151 24-139) (Fc fusion) | –
1650 | 2000 | 1770 | CD155 variant S52M, Q62Y IgV-Fc (from UniProt P15151 24-139) (Fc fusion) | –
1700 | 6470 | 1750 | CD155 variant S42L, S52Q, L104E IgV-Fc (from UniProt P15151 24-139) (Fc fusion) | –
2530 | 2270 | 1810 | CD155 variant S42V, S52E IgV-Fc (from UniProt P15151 24-139) (Fc fusion) | –
99000 | – | 1780 | Wildtype CD155 ECD-Fc (from UniProt P15151 21-343) (Fc fusion) | –
1620 | 2190 | 1740 | CD155 variant S42L IgV-Fc (from UniProt P15151 24-139) (Fc fusion) | –
3320 | 2790 | 2470 | CD155 variant G111R IgV-Fc (from UniProt P15151 24-139) (Fc fusion) | –
2140 | 2230 | 1910 | CD155 variant S42Q IgV-Fc (from UniProt P15151 24-139) (Fc fusion) | –
1480 | 2080 | 1590 | CD155 variant S42C, S52M, Q62F IgV-Fc (from UniProt P15151 24-139) (Fc fusion) | –
1630 | 1910 | 2070 | CD155 variant S52W, L104E IgV-Fc (from UniProt P15151 24-139) (Fc fusion) | –
– | 2300 | 1820 | CD155 variant S42W, S52R, Q62Y, L104Q IgV-Fc (from UniProt P15151 24-139) (Fc fusion) | –
1640 | 2160 | 1660 | CD155 variant S42G, S52L, Q62F, L104Q IgV-Fc (from UniProt P15151 24-139) (Fc fusion) | –
1710 | 2040 | – | CD155 variant S52W IgV-Fc (from UniProt P15151 24-139) (Fc fusion) | –
